Assay results: the nanobody polyreactivity screen of Harvey et al. (2022)

Experiment: yeast display, Sf9 membrane polyspecificity reagent, FACS + sequencing; frameworks hold sequencing errors
Summary of the method: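 Polyreactivity labels are assigned by the sorting gate from which each nanobody was recovered. The gates were low and high (top ~1%), set on anti-HA fluorescence for expression and streptavidin fluorescence for reagent binding. Before sorting, galactose-induced (36–48 hours) yeast display cells were stained for 1 hour at 4 °C with 10% biotinylated, detergent-solubilized Sf9 membrane reagent.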

Row | Sequence | polyreactivity (PSR sort gate)
1 | QVQLVESGGGLVQAGGSLRLSCAASGSIFSGYAMGWYRQAPGKERELVAAITSGGSTDYADSVKGRFTISRDNAKNSVYLQMNSLKPEDTAVYYCAAEGGYSSYGYDYWGQGTQVTVSS | low polyreactivity
2 | QVQLVESGGGLVQAGGSLRLSCAASGRIFVYNTMGWYRQAPGKERELVAAIDWSGGSKYYADSVKGRFTISRDNAKNTVYLQMNSLKPEDTAVYYCNADSLIGMDYWGQGTQVTVSS | high polyreactivity
3 | QVQLVESGGGLVQAGRSLRLSCAASGRTFGANAMGWYRQAPGKERELVAAISYHGTRTYYADSVKGRFTISRDNAKNTVYLQMNSLKPEDTAVYYCAAVGKPGVYQEGDYWGQGTQVTVSS | high polyreactivity
4 | QVQLVESGGGLVQAGGSLRLSCAASGFIFTTYAMGWYRQEPGTERELVAAISGRGGTTYYADSVKGRFTISRDNAKNTVYLQMNSMKPEDTAVYYCAADGYPGDDYWGQGTQVTVSS | high polyreactivity
5 | QVQLVESGGGLVQAGGSLRLSCAASGSTFGVYAMGWYREAPGKERELVAAINKSGTRTYYADSVKGRFTISRDNAKNTVYLQMNSLKPEDTAVYYCAADQGTYGYGGFYYWGQGTQVTVSS | high polyreactivity
6 | QVQLVETGGGLVQAGGSLRLSCAASGSIFYTNAMGWYRQAPGKERELVAVITASGGSTYYADSVKGRFTISRDNAKNTVYLQMNSLKPEDTAVYYCAADPVFNYDYWGQGTQVTVSS | low polyreactivity
7 | QVQLVESGGGLVQAGGSLRLSCAASGRTFGKNAMGWYRPAPGKERELVAAIRYRTGSTYYADSVKGRFTISRDNAKNTVYLQMNSLKPEDTAVYYCAKVGSSPLYWGQGTHVTVSS | high polyreactivity
8 | QVQLVESGGGLVQAGGSLRLSCAASGSIFVGYGAMGWYRQAPGKERELVAAITSGNSTYYADSVKGRFTISRDNAKNTVYLQMNSLKPEDTAVYYCAARGFLKYVTEFDYWGQGTQVTVSS | low polyreactivity
9 | QVQHLESGGGLVQAGGSLRLSCAASGFTFGYYAMGWYRQAPGKEREFVATISYGTGSTYYADSVKGRFTISRDNAKNTVYLQMNSLKPEDTAVYYCNADTWPGEYNGYFSGAYDYWGQGTQVTVSS | high polyreactivity
10 | QVQLVESGGGLVQAGGSLRLSCAASGFTFFVYAMGWYRQAPGKERELVAVITSGGTTNYADSVKGRFTISRDNAKNTVYLQMNSLKPEDTAVYYCATDNGGIPKYVPYDFWGQGTQVTVSS | high polyreactivity
11 | QVQLVESGGGLVQAGGSLRLSCAASGRIFQWYTMGWYRQAPGKERELVATITDGGSTYYADSVKGRFTISRDNAKNTVYLQMNSLKPEDTAVYYCAARKIGSRRLLYPYYIFGYWGQGTQVTVSS | high polyreactivity
12 | QVQLVESGGGLVQAGGSLRLSCAASGGTFLAYAMGWYRQAPGKERELVAAITRRGTRTYYADSVKGRFTISRDNAKNTVYLQMNSLKPEDTAVYYCAVSGGFYWGQGTQVTVSS | high polyreactivity
13 | QVQLVESGGGLVQAGGSLRLSCAASGYNFDDNAMGWYRQAPGKERELVATNYADSVKGRFTISRDNAKNTVYLQMKSLKPEDTAVYYCAKDVWQTYTDLDHWGQGTQVTVSS | low polyreactivity
14 | QVQLVESGGGLDQAGGSLRLSCAASGRTFTGNAMGWYRQAPGKERELVAAISSRGSSTYYADSVKGRFTISRDNAKNTVYLQMNSLKPEDTAVYYCAAVWPRPKYVYESDYWGQGTQVTVSS | high polyreactivity
15 | QVQLVESGGGLVQAGGSLRLSCAASGRTFYFYVMGWYRQAPGKERELVARISWSGGSTYYADSVKGRFTISRDNAKNTVYLQMNSLKPEDTAVYYCARQYKYPSSGEYDSWGQGTQVTVSS | low polyreactivity
16 | QVQLVESGGGLVQAGGSLRLSCAASGSIFGYYAMGWYRQAPGKEREFVAAITSRVGRTHYADSVKGRFTISRDNAKNTVYLQMNSLKPEDTAVYYCAAEVRQYYRRGYYWGQGTQVTVSS | high polyreactivity
17 | QVQLVESGGGLVQAGGSLRLSCAASGSIFHWNAKGWYRQAPGKERELVAGITTSGGTTYYADSVKGRFTISRDNAKNTVYLQMNSLKPEDTAVYYCAARIIRWRPRWPSYGKYDYWGQGTQVTVSS | low polyreactivity
18 | QVQLVESGGGLVQAGGSLRLSCAASGRTFDYNAMGWYRQAPGKERELVAAISSSGGSTYYADSVKGRFTISRDNAKNTVYLQMNSLKAEDTAVYYCATLYPRKSIYYYWGQGTQVTVSS | high polyreactivity
19 | QVQLVESGGGLVQAGGSLRLSCADSGRTFYYYAMGWYRQAPGKERELVASISYSAGRTYADSVKGRFTISRDNAKNTVYLQMNSLKPEDTAVYYCNADVTTVPYTNDYWGQGTQVTVSS | high polyreactivity
20 | QVQLVESGGGLVQAGGSLRLSCAASGRIFERYAMGWYRQEPGKERELVAGISISGGGTYYADSVKGRFTISRDNAKNTVYLQMNSLKPEDTAVYYCAGTFPREEYGYWGQGTQVTVSS | low polyreactivity
21 | QVQLVESWGGLVQAGGTLRLSCAASGGIFIDYTMGWYRQAPGKERELVAAITRGGSTYYADSVKGRFTISRDNAKNTVYLEMNSLIAEDTAVYYCAARANSPVGHNRFGYWGQGTQVTVSS | low polyreactivity
22 | QVQLVESGGGLVQAGGSLRLSCAASGRIFPYYDMGWYRQAPGKERELVAAITWNGGSTYYADSVKGRFTISRDNAKNTVFLQMNSLKPEDSAVYYCAVEPYYYGEDYWGQGTQVTVSS | low polyreactivity

Row | Sequence | polyreactivity (PSR sort gate)
23 | QVQLVESGGGLVQAGGSLRLSCDASGSTSYLYAMGCYRQAPGKARELVAAIPWRSVRTSYADSVKGRFTFSRDNAKNTVYLQMNSLKPEDTAVYYCNAVGYTRGRSTYDYWGQGTQVTVSS | high polyreactivity
24 | QVQLVESGGGLVQAGGTLRLSCAASGSIVQSYAMGWYRQAPGKERELVAAITERGGSTYYADSVKGRFTISRDNAKNTVYLQMNSLKPEDTAVYYCAAKAVGLGKSWRGDDYWGQGTQVTVSS | low polyreactivity
25 | QVQLVESGGGLVQAGGSLRLSCAASGRTFYGYAMGWSRQAPGKERELVAAISWTGGRTYYADSVKGRFTISRDNAKNTVFLQMNSLKPEDTAVYYCNARRRGDSGDGYIYGYWGQGTQVTVSS | high polyreactivity
26 | QVQLVESGGGLVQAGCSLRLSCDASGSIFPGNAMGWYRQAPGKEREFVAAISWSGGSTNYADSVKGRFTISRDNAKNTVYLQMNSLKPEDTAVYFCAKRFVRRDPTTQLYGKAYEYWGQGTQVTVSS | high polyreactivity
27 | QVQLVESGGGLVQAGGSLRLSCAASGRNYVYNAMGRYRQAPGKETELVAAITSSGGSTYYADSVKGRFTISRDNAKNSVDLQMNSLKPEDTAVYYCAADVQPDTRSTPEMDYWGQGTQVTVSS | low polyreactivity
28 | QVQLVESGGGLVQAGGSRRLSCAASGRTFEGNAMGWYRQAPGKERELVAAITSGGRTNYADSVKGRFTISRDNAKNTVYLQMNSLKPEDTAVYYCAVDTRDRSTYFPGQAYDFWGQGTQVTVSS | low polyreactivity
29 | QVQLVESGGGLVQAGGSLRLSWAASGRIFVLNAMGSYRQAPGKERELVAAISTGASTNYADSVKGRFTISRDNAKNTVYLKMNSLTPEATAVYYCAAAPGSSGARTSYILAYDYWGLGTQVTVSS | low polyreactivity
30 | QVQLVESGGGLVQAGGSLRLSCAASGSIFRPNTMGWYRQAPGKERELVAAINWSGDDTYYADSVKGRFTISRDNAKNTVYLQMNSLKPEDTAVYYCAVDLFDGVTKLNYDYWGQGTQVTVSS | low polyreactivity
31 | QVQLVESGGGLVQAGGSLRLSCAASGFTFKRNAMGWYRQAPGKERELVAAITKSGGSTYYADSVKGRFTISRDNAKNTVYLQMNSLQPEDTAVYYCNTVHYYRDYDYWGQGTQVTVSS | high polyreactivity
32 | QVQLVESGGGLVQAGGSLRLSCAASGFIFYYYAMGWYRQAPGKERELVAAISWSGGSTYYADSVKGRFTISRDNAKNTVYLQMNSLKPEDTAVYDCAVSRDSYGGKGSFLYDYWGQGTQVTVSS | low polyreactivity
33 | QVQLVESGGGLVQAGGSLRLSCAASGSIFPSYAMGWYRQAPGKERELVAAINWDGGSTFYADSVKGRFTISRDNAKNTVYLQMKSLKPEDTAVYYCAAPDNYGGVGGITFWRMDYWGQGTQVTVSS | low polyreactivity
34 | QVQLVESGGGLVQAGGSLRLSCASSGRILYLNAMGWYRQAPGKERELVAAITLRAGSTRYADSVKGRFTISRDNAKNTVYLQMNSLKPEDTAVYYCAVAYYRNRMDYWVQGTQVTVSS | high polyreactivity
35 | QVQLVESGGRLVQAGGTLRLSCAASGSICGFNAMGWYRQAPGKERELVAAINNGGSKNYADSVKGRFTISRDNAKITVYLQMKILKQEDTEVYYCAARLNYIRRGYWGQGTQVTVSS | high polyreactivity
36 | QVQLVESGGGLVQAGGSLRLSCAASGSTLWLYAMGWYRQAHGKERELVAVISNSGSTYYAESVKGRFTISRDNAKNTVYLQMNSLKPEDTAVYSCNKDGGGDSYWYDYWGQGTQVTVSS | low polyreactivity
37 | QDQLVESGGGLVQAGGSLRLSCAASGSIFPHNAKGSYRQAPGKERELVASITSRGGITYYADSVKGRFTISRDNAKNTVYLQMNSLKPEDTAVYYCAADTYTDGYDYWGQGTQVTVSS | low polyreactivity
38 | QVQLVESGGGLVQAGGSLRLSCAASGSIFFDYALGWYRQAPGKERELVARITSSDSTNYADSVKGRFTISRDNAKNTVYLQMNSLKPEDTAVYYCNKDSTGDGYDYWGQGTQVTVSS | low polyreactivity
39 | QVQLVESGGGLVQAGGSLRLSCAASGSIFFDNAMGWYRQAPGKERELVATINSGGNTHYADSVKGRFTISRDNAKNTVYLQMNSLKPEDTAVYYCAADFPSDLVDGYNYWGQGTQVTVSS | low polyreactivity
40 | QVQLVESGGGLVQAGGSLRLSCAAAGRIFVGYAMGWYRQAPGKERELVAGISRSGYSTYYADSVKGRFTISRDNAKNTVYLQMNSLKPEDTAVYYCAASWYKNPTRYYYWGQGTQVTVSS | high polyreactivity
41 | QVQLVESGGGLVQAGGSLRLSCAASGRTFYNNAMGWYRPAPGKERELVAAISQRTGRTYYADSVKGRFTISRDNAKNTVYLQMNSLKPEDTAVYYCNKVAYYSRRMDYWGQGTQVTVSS | high polyreactivity
42 | QVQLVESGGGLVQAGGSLRLSCAASGSIFTVYAMGWYRQAPGKERELVAAISSSGGTTYYADSVKGRFTISRDNAKNTVYLQMTSLKPEDTAVYYCAAPTHSPYDYWGQGTQVTVSS | low polyreactivity
43 | QVQLVESGGGLVQAGGSLRLSCAASGYTFAYNGMGWYRQAPGKERELVAVIDWSTGDTYYADSVKGRFTISRDNAKNTVYLQMNSLKPEDTAVYYCAADFFEGLYVFWGQGTQVTVSW | low polyreactivity
